Columns and labels:
Test in all cases: SPR
[1] = biological target: Z_(VEGFR2_22)-(S4G)4-ABD035-(S4G)4-Z_(VEGFR2_40)
[2] = biological target: Z_(VEGFR2_40)-(S4G)4-ABD035-(S4G)4-Z_(VEGFR2_22)
[3] = biological target: Z_(VEGFR2_40)-(S4G)4-ABD035-(S4G)4-Z_(VEGFR2_40)

Question: How did the koff [1] turn out when “murine VEGFR2 (Sino Biological) (from UniProt P35918 20-762) (receptor)” was run?
Answer: 0.00014 s⁻¹

Question: What about the koff [2] of the same substance?
Answer: 0.00018 s⁻¹

Question: What about the koff [3] of the same substance?
Answer: 0.00079 s⁻¹
